Experiments:
Conditions in all cases: both partners purified
[1] = target: T1, WT Cu, Zn superoxide dismutase-1 (SOD1), recombinant human (human, UniProt P00441 1-154); test: capillary electrophoresis; both homodimers as 4Zn-SOD1; 15 μM dimer each ([SOD1]total = 30 μM), followed over time; 10 mM potassium phosphate pH 7.4, CE at 22 °C, storage at 15 °C; KHet assumed from the fit extrapolated to t = 5000 min
T1 construct: Cu, Zn superoxide dismutase-1 (SOD1), human; Homodimer; intramolecular disulfide bond intact; N-terminus probably acetylated (surmise); also called WT SOD1; WT apo-SOD1; source: demetalated by dialysis, remetalated with ZnSO4 where stated

[2] = target: T1, WT Cu, Zn superoxide dismutase-1 …; test: capillary electrophoresis; both homodimers apo (metal-free, disulfide intact), mixed at 15 μM dimer each ([SOD1]total = 30 μM), followed over time; 10 mM potassium phosphate pH 7.4, CE at 22 °C, storage at 15 °C; KHet assumed from the fit extrapolated to t = 5000 min
[3] = target: T1, WT Cu, Zn superoxide dismutase-1 …; test: capillary electrophoresis; binder (first named) as 4Zn-SOD1, target (second named, WT or TD) as apo-SOD1; 15 μM dimer each ([SOD1]total = 30 μM), followed over time; 10 mM potassium phosphate pH 7.4, CE at 22 °C, storage at 15 °C; KHet assumed from the fit extrapolated to t = 5000 min
[4] = target: T1, WT Cu, Zn superoxide dismutase-1 …; test: capillary electrophoresis; binder (first named) as apo-SOD1, target (second named, WT or TD) as 4Zn-SOD1; 15 μM dimer each ([SOD1]total = 30 μM), followed over time; 10 mM potassium phosphate pH 7.4, CE at 22 °C, storage at 15 °C; KHet assumed from the fit extrapolated to t = 5000 min

T1 sequence (P00441 whole entry): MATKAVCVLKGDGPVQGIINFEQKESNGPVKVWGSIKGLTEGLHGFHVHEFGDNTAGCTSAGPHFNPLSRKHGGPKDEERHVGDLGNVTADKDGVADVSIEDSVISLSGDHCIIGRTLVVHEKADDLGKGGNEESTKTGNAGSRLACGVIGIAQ

B1: triply deamidated SOD1 (modeled with N26D/N131D/N139D substitutions), recombinant human (enzyme)
chain: not shown
notes: Cu, Zn superoxide dismutase-1 (SOD1), human, triple mutant N26D/N131D/N139D; printed mass of the apo subunit 15847 Da; Homodimer; disulfide intact; also called TD SOD1; TD; source: demetalated by dialysis, remetalated with ZnSO4 where stated
[1]
  assumed KHet (t = 5000 min): 2.13 ± 0.71
  kHet (rate constant of heterodimerization): 0.0038 min⁻¹
[2]
  assumed KHet (t = 5000 min): 2.34 ± 0.31
  kHet (rate constant of heterodimerization): 0.0128 min⁻¹
[3]
  assumed KHet (t = 5000 min): 2.09 ± 0.14
  kHet (rate constant of heterodimerization): 0.0041 min⁻¹
[4]
  assumed KHet (t = 5000 min): 2.27 ± 0.08
  kHet (rate constant of heterodimerization): 0.0066 min⁻¹
